From paper PMC12329595, “Engineered bacteriophytochrome heterodimers for research and applications” (The Journal of Biological Chemistry, 2025)
Substitutions are numbered along the chain they refer to. In names and notes the source's numbering stands. Read-outs that look alike come from different tables or passages of the source. Each block holds one molecule with its values, some of them ahead of it.

B1: DrBphPRR (full-length DrBphP E148R/E306R) (natural protein)
chain: MSRDPLPFFPPLYLGGPEITTENCEREPIHIPGSIQPHGALLTADGHSGEVLQMSLNAATFLGQEPTVLRGQTLAALLPEQWPALQAALPPGCPDALQYRATLDWPAAGHLSLTVHRVGELLILEFEPTEAWDSTGPHALRNAMFALRSAPNLRALAEVATQTVRELTGFDRVMLYKFAPDATGEVIAEARREGLHAFLGHRFPASDIPAQARALYTRHLLRLTADTRAAAVPLDPVLNPQTNAPTPLGGAVLRATSPMHMQYLRNMGVGSSLSVSVVVGGQLWGLIACHHQTPYVLPPDLRTTLRYLGRLLSLQVQVKEAADVAAFRQSLREHHARVALAAAHSLSPHDTLSDPALDLLGLMRAGGLILRFEGRWQTLGEVPPAPAVDALLAWLETQPGALVQTDALGQLWPAGADLAPSAAGLLAISVGEGWSECLVWLRPELRLEVAWGGATPDQAKDDLGPRHSFDTYLEEKRGYAEPWHPGEIEEAQDLRDTLTGALGERLSVIRDLNRALTQSNAEWRQYGFVISHHMQEPVRLISQFAELLTRQPRAQDGSPDSPQTERITGFLLRETSRLRSLTQDLHTYTALLSAPPPVRRPTPLGRVVDDVLQDLEPRIADTGASIEVAPELPVIAADAGLLRDLLLHLIGNALTFGGPEPRIAVRTERQGAGWSIAVSDQGAGIAPEYQERIFLLFQRLGSLDEALGNGLGLPLCRKIAELHGGTLTVESAPGEGSTFRCWLPDAGPLPGAADA
modifications: biliverdin IXα covalently linked to a conserved cysteine (holoprotein)
notes: Deinococcus radiodurans strain R1 bacteriophytochrome DrBphP, full length; source: E. coli BL21 (DE3), purified (Ni-NTA, SEC)
B2: Full-length phytochrome from Deinococcus radiodurans strain R1 (DrBphP), wild type (natural protein)
chain: B1 chain with R148E, R306E
modifications: biliverdin IXα covalently linked to a conserved cysteine (holoprotein)
notes: Deinococcus radiodurans strain R1 bacteriophytochrome DrBphP, full length (PSM and histidine kinase module); also called DrBphPWT; source: E. coli BL21 (DE3), purified (Ni-NTA, SEC)
B3: DrBphPRE (full-length DrBphP E306R/R310E) (natural protein)
chain: B1 chain with R148E, R310E
modifications: biliverdin IXα covalently linked to a conserved cysteine (holoprotein)
notes: as for B1
B4: DrBphPEE (full-length DrBphP R141E/R310E) (natural protein)
chain: B1 chain with R141E, R148E, R306E, R310E
modifications: biliverdin IXα covalently linked to a conserved cysteine (holoprotein)
notes: as for B1
B5: DrBphPER (full-length DrBphP R141E/E148R) (natural protein)
chain: B1 chain with R141E, R306E
modifications: biliverdin IXα covalently linked to a conserved cysteine (holoprotein)
notes: as for B1

Key:
[1] = target: DrPSMRR (DrPSM E148R/E306R) (Deinococcus radiodurans strain R1); test: ITC; MicroCal PEAQ-ITC, 25 °C, darkness (Pr state), 30 mM Tris/HCl, 150 mM NaCl, pH 8.0; cell 9 to 18 μM, syringe 100 to 280 μM; single-site fit; individual components injected into buffer and vice versa as background
[2] = target: DrPSMRR (DrPSM E148R/E306R) (Deinococcus radiodurans strain R1); test: as above; remark: listed apart in the source
[3] = target: DrPSMRE (DrPSM E306R/R310E) (Deinococcus radiodurans strain R1); test: as above
[4] = target: DrPSMRE (DrPSM E306R/R310E) (Deinococcus radiodurans strain R1); test: as above; remark: listed apart in the source
[5] = target: the molecule itself; test: SEC; HPLC, bioZen 1.8 μm SEC-3 column, 30 mM Tris/HCl, 150 mM NaCl, pH 8.0 with 10% acetonitrile, 25 °C; full-length DrBphP and DrF1 variants and mixtures
[6] = target: B1; test: as above; settings: both partners purified
[7] = target: B3; test: as above; settings: both partners purified

Kd [1]: 12 nM | Kd [2]: 800 nM | stoichiometry N [2]: 1
Molecule: DrPSMEE (DrPSM R141E/R310E) (domain or fragment)

Kd [3]: 800 nM | Kd [4]: 12 nM | stoichiometry N [4]: 1
Molecule: DrPSMER (DrPSM R141E/E148R) (domain or fragment)

Molecule: B1
binding result [5]: binds

Molecule: B2
binding result [5]: binds

Molecule: B3
binding result [5]: binds

Molecule: B4
binding result [6]: binds

Molecule: B5
binding result [5]: binds | binding result [7]: binds
